The assay addresses Omicron BA.1.1 spike trimer (includes the R346K mutation) (SARS-CoV-2) (UniProt P0DTC2). Briefly: Luminex spike-ACE2 surrogate neutralization assay.

P5C3 LS monoclonal antibody had a percent inhibition of ACE2 binding at 20 µg ml^−1 of 100%.

For the origin of these results see article PMC9418005.
